Legend:
[1] = molecular target: human NT5E-Biotin (NT5E is GenbankID: NP_002517.1, position: 1-552) (human) (UniProt P21589); experiment: ELISA on streptavidin-captured human NT5E-Biotin; antibody 0 (blank well); replicate 2
[2] = molecular target: human NT5E-Biotin (NT5E is GenbankID: NP_002517.1, position: 1-552) (human) (UniProt P21589); experiment: ELISA on streptavidin-captured human NT5E-Biotin; antibody 1:729 dilution of 0.333 ug/mL; replicate 2
[3] = molecular target: human NT5E-Biotin (NT5E is GenbankID: NP_002517.1, position: 1-552) (human) (UniProt P21589); experiment: ELISA on streptavidin-captured human NT5E-Biotin; antibody 1:243 dilution of 0.333 ug/mL; replicate 1
[4] = molecular target: human NT5E-Biotin (NT5E is GenbankID: NP_002517.1, position: 1-552) (human) (UniProt P21589); experiment: ELISA on streptavidin-captured human NT5E-Biotin; antibody 1:243 dilution of 0.333 ug/mL; replicate 2
[5] = molecular target: human NT5E-Biotin (NT5E is GenbankID: NP_002517.1, position: 1-552) (human) (UniProt P21589); experiment: ELISA on streptavidin-captured human NT5E-Biotin; antibody 1:27 dilution of 0.333 ug/mL; replicate 2
[6] = molecular target: human CD73 expressed on cells (human PBMC CD8+ T cells and CD19+ B cells; endogenous CD73 of MDA-MB-231 and U87-MG cells) (human) (UniProt P21589); experiment: cell-based or functional assay
[7] = molecular target: human NT5E-Biotin (NT5E is GenbankID: NP_002517.1, position: 1-552) (human) (UniProt P21589); experiment: ELISA on streptavidin-captured human NT5E-Biotin; antibody 1:9 dilution of 0.333 ug/mL; replicate 2
[8] = molecular target: human NT5E-Biotin (NT5E is GenbankID: NP_002517.1, position: 1-552) (human) (UniProt P21589); experiment: ELISA on streptavidin-captured human NT5E-Biotin; antibody 1:3 dilution of 0.333 ug/mL; replicate 2
[9] = molecular target: human NT5E-Biotin (NT5E is GenbankID: NP_002517.1, position: 1-552) (human) (UniProt P21589); experiment: ELISA on streptavidin-captured human NT5E-Biotin; HRP goat anti-human IgG
[10] = molecular target: human NT5E-Biotin (NT5E is GenbankID: NP_002517.1, position: 1-552) (human) (UniProt P21589); experiment: ELISA on streptavidin-captured human NT5E-Biotin; antibody 0 (blank well); replicate 1
[11] = molecular target: human NT5E-Biotin (NT5E is GenbankID: NP_002517.1, position: 1-552) (human) (UniProt P21589); experiment: ELISA on streptavidin-captured human NT5E-Biotin; antibody 1:81 dilution of 0.333 ug/mL; replicate 2
[12] = molecular target: human NT5E-Biotin (NT5E is GenbankID: NP_002517.1, position: 1-552) (human) (UniProt P21589); experiment: ELISA on streptavidin-captured human NT5E-Biotin; antibody 1:27 dilution of 0.333 ug/mL; replicate 1
[13] = molecular target: human NT5E-Biotin (NT5E is GenbankID: NP_002517.1, position: 1-552) (human) (UniProt P21589); experiment: ELISA on streptavidin-captured human NT5E-Biotin; antibody 1:81 dilution of 0.333 ug/mL; replicate 1
[14] = molecular target: human NT5E-Biotin (NT5E is GenbankID: NP_002517.1, position: 1-552) (human) (UniProt P21589); experiment: ELISA on streptavidin-captured human NT5E-Biotin; antibody 1:729 dilution of 0.333 ug/mL; replicate 1
[15] = molecular target: human NT5E-Biotin (NT5E is GenbankID: NP_002517.1, position: 1-552) (human) (UniProt P21589); experiment: ELISA on streptavidin-captured human NT5E-Biotin; antibody 1:9 dilution of 0.333 ug/mL; replicate 1
[16] = molecular target: human NT5E-Biotin (NT5E is GenbankID: NP_002517.1, position: 1-552) (human) (UniProt P21589); experiment: ELISA on streptavidin-captured human NT5E-Biotin; antibody 0.333 ug/mL; replicate 1
[17] = molecular target: human NT5E-Biotin (NT5E is GenbankID: NP_002517.1, position: 1-552) (human) (UniProt P21589); experiment: ELISA on streptavidin-captured human NT5E-Biotin; antibody 0.333 ug/mL; replicate 2
[18] = molecular target: human NT5E-Biotin (NT5E is GenbankID: NP_002517.1, position: 1-552) (human) (UniProt P21589); experiment: ELISA on streptavidin-captured human NT5E-Biotin; antibody 1:3 dilution of 0.333 ug/mL; replicate 1

human CD73 expressed on cells (human PBMC CD8+ T cells and CD19+ B cells; endogenous CD73 of MDA-MB-231 and U87-MG cells) (human), sequence (P21589 27-549): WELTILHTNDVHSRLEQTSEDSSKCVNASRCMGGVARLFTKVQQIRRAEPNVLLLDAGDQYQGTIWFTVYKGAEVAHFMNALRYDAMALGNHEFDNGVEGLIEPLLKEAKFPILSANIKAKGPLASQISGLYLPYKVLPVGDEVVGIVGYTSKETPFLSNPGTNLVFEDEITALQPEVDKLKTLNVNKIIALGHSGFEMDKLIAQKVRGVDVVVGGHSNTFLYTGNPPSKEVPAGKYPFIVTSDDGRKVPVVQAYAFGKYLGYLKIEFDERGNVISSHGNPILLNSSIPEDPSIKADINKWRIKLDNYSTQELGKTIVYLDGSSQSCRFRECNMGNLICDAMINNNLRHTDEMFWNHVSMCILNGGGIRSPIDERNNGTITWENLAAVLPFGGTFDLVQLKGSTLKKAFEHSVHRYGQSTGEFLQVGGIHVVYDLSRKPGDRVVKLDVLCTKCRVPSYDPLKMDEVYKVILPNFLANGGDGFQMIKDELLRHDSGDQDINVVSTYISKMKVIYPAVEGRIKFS
human NT5E-Biotin (NT5E is GenbankID: NP_002517.1, position: 1-552) (human), sequence (P21589 27-552 limits assumed, form in doubt): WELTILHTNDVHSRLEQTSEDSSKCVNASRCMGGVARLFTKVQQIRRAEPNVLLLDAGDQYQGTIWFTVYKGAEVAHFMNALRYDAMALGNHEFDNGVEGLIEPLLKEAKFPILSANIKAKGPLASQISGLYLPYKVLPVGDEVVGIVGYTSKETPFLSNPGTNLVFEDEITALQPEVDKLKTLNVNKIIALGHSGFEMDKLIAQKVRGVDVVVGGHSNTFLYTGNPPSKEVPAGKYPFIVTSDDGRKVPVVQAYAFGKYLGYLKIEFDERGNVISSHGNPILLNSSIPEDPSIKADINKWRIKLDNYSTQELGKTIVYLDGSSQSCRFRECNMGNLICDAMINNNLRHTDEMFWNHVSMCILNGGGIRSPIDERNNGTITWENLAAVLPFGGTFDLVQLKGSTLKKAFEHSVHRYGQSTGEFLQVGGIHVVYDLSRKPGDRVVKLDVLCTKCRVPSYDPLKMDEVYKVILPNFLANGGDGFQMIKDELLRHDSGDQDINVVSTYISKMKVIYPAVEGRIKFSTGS

OD (450 nm) [1]: 0.116 OD450 | OD (450 nm) [2]: 0.275 OD450 | OD (450 nm) [3]: 0.536 OD450 | OD (450 nm) [4]: 0.528 OD450 | OD (450 nm) [5]: 1.74 OD450 | Inhibition rate EC50 (nM): enzyme activity of CD73 expressed by human PBMC membrane (AMP/ATP CellTiter-Glo read-out) [6]: 0.0064 nM | internalization rate of CD73 in MDA-MB-231 cells after 22 hours (FACS) [6]: 50.5% | internalization rate of CD73 in U87-MG cells after 22 hours (FACS) [6]: 73.7% | OD (450 nm) [7]: 2.28 OD450 | OD (450 nm) [8]: 2.6 OD450 | EC50 [9]: 0.048 nM | OD (450 nm) [10]: 0.121 OD450 | OD (450 nm) [11]: 1.03 OD450 | OD (450 nm) [12]: 1.77 OD450 | OD (450 nm) [13]: 1.06 OD450 | OD (450 nm) [14]: 0.272 OD450 | OD (450 nm) [15]: 2.27 OD450 | OD (450 nm) [16]: 2.55 OD450 | OD (450 nm) [17]: 2.53 OD450 | OD (450 nm) [18]: 2.57 OD450
Substance: positive control antibody MEDI9447 (Oleclumab)
